Consider 21 sequences from a protein production outcome set (Wang et al. 2014).

The series is described as follows: label from the status in PepcDB records.
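Note: failed if final PepcDB status was selected cloned or expressed and not failed if soluble or beyond.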

Consider “MALVRSLFVSNKILGGSLAGMRKSTSAPKGFLAVYVGESQKKQRYLVLVSYLSQPLFQDLLSKSEEEFGFDHPMGGLTIPCPEDTFLTVTSRIQG”, for which the protein production result is recorded as “failed”.

With “MAMEIGEDEWKVCCGSSEFAKQMSTSGPLTSQEAIYTARDIWFNQVNVTDWLEAFSAHPQIGNTPSPSINSDFARRSVSEQSTAFATTSASALQELAEWNVLYKKKFGFIFIICASGRTHAEMLHALKERYENRPIVELEIAAMEQMKITELRMAKLFSDKAKVISETDSSSSPVSTKPQDRLRIIGGHLNVAAEAKAPKRSRPPITTHVLDVSRGAPAAGVEVHLEVWSGTTGPSFVHGGGGVWSSVGTSATDRDGRSGPLMDLVDALNPGTYRISFDTAKYSPGCFFPYVSIVFQVTESQKWEHFHVPLLLAPFSFSTYRGS”, the protein production entry is reported as “failed”.

For “MAMEKPVLWYIADPMCSWCWGFAPVIENIRQEYSAFLTVKIMPGGLRPGTNTPLLPEKRAQILHHWHSVHITTGQPFTFENALPEGFIYDTEPACRGVVSVSLIEPEKVFPFFAAIQRAFYVGQEDVAQLAILKKLAVDLGIPESRFTPVFQSDEAKQRTLAGFQRVAQWGISGFPALVVESGTDRYLITTGYRPIEALRQLLDTWLQQHGV”, the protein production result is listed as “not failed”.

For the sequence “MAMMAKHQAVKKIFDQIATKYDLIDTIISLGLDQHWRRVLVSSLGLREGMRCLDCGAGSGKVTELIYFRCGGCDVTALDITDSMFNPELKKYVKFVVSPAESLPFPDASFDRVSSAFLTRNLADIDRYFAEVYRVLRPGGVFVNMDIYNPTRPVISEFFSLYFYRFVPFFGNRATGSKNYTYLANTVKYFHRPSVISQKLADRGFSVEATDLFFGAVYLHRSVKPEGRGLEHHHHHH”, the protein production result is recorded as “failed”.

With “MAMRDLVNGGAACAVPGSSSSSNPLGALTNALLGSSSKTQERLKEIPNANRSGPRPQFYSEDQQIRSLPGSELDQPLLQPGAQGSEFFRGFRSVDQNGLGAAWDEVQQGGPMPPMGPMFEPVQPTFEGPPQRVLSNFLHSFVESSRGGIPFRPAPVPVLGLSQSDKQCIRDRSSIMARHFFADRGEEFINSQVNALLSSLDIDDGIQARGHVPGRFRELDDYWNESQAVVKPNLHPADNWAAEFNQHGMDHGGPDSWVQSFEQQHGVNGWATEFEQGQSQLMSSQMRSMDMQNIAAMEQTRKLAHTLSQDGNPKFQNSRFLQFVSKMSRGELIIDENQVKQASAPGEWATEYEQQYLGPPSWADQFANEKLSHGPEQWADEFASGRGQQETAEDQWVNEFSKLNVDDWIDEFAEGPVGDSSADAWANAYDEFLNEKNAGKQTSGVYVFSDMNPYVGHPEPMKEGQELFRKGLLSEAALALEAEVMKNPENAEGWRLLGVTHAENDDDQQAIAAMMRAQEADPTNLEVLLALGVSHTNELEQATALKYLYGWLRNHPKYGAIAPPELADSLYHADIARLFNEASQLNPEDADVHIVLGVLYNLSREFDRAITSFQTALQLKPNDYSLWNKLGATQANSVQSADAISAYQQALDLKPNYVRAWANMGISYANQGMYKESIPYYVRALAMNPKADNAWQYLRLSLSCASRQDMIEACESRNLDLLQKEFPL”, the protein production entry is “failed”.

In the case of “MAMSLSGAVLSGMGSSFHNVGAKQSGVGTVRVGRKSELVVVAQRKKSLIYAVKSDGNILDDLNEATKKASDFVTDKTKEALADGEKTKDYIVEKTIEANETATEEAKKALDYVTEKGKEAGNKAAEFVEGKAEEAKNATKS”, the protein production result is listed as “failed”.

Consider “MANADLDKQPDSVSSVLKVFGILQALGEEREIGITELSQRVMMSKSTVYRFLQTMKTLGYVAQEGESEKYSLTLKLFELGARALQNVDLIRSADIQMRELSRLTKETIHLGALDEDSIVYIHKIDSMYNLRMYSRIGRRNPLYSTAIGKVLLAWRDRDEVKQILEGVEYKRSTERTITSTEALLPVLDQVREQGYGEDNEEQEEGLRCIAVPVFDRFGVVIAGLSISFPTLRFSEERLQEYVAMLHTAARKISAQMGYHDYPF”, for which the protein production entry is reported as “not failed”.

As for “MANDIDRAGVAKAYARWAPIYDLVFGKVFDSGRQSTIAVADAIGGRVLDVGVGTGLSLSDYSKTTRLCGVDISEPMLRKAHERVRTLNLSNVDVLAVMDAKNLAFPANYFDAVVAQYVITAVPDPEATLDDFIRVLKPGGELILVNHIGAESGPRKLFELAFSPIARRLGWRPEFPWQRLVNWAARHRGVELAERRPMPPMGHFSLIRYRKLLEHHHHHH”, the protein production result was “failed”.

“MANEATQELFQVLDNTAIILQNELEISYLEAVYETGENLFQKEVLQKEELSSEKQLKLQESYESIELENFSNEEIRKGLQLALLKGMKHGIQVNHQMTPDSIGFIVAYLLEKVIQKKKNISILDPACGTANLLTTVINQLELKGDVDVHASGVDVDDLLISLALVGADLQRQKMTLLHQDGLANLLVDPVDVVISDLPVGYYPDDENAKTFELCREEGHSFAHFLFIEQGMRYTKPGGYLFFLVPDAMFGTSDFAKVDKFIKKNGHIEGIIKLPETLFKSEQARKSILILRKADVNVKPPKEVLLANLSSLTDPSVTAPILAEIENWFKSKQ”: the protein production entry is recorded as “not failed”.

As for “MANFEDFLTLDLRIGTVTHAEEFKEARVPAIKLEIDFGELGMKQSSAQITKRYNPEDLIGQQIVAVVNFPPKRVAGFKSEVLVLGGVPEAGDVVLLQPNMELPNGTKIS”, the protein production result is on record as “not failed”.

On to “MANFIEKITYLGTPAIKAGNEHLEMIVVPEWGSNVISLVDKTTNVQLLREPETAESFHDTPTLYGIPILFPPNRISDGTFSFRGRTYHFDINEKDKHNHLHGFLYHEKWNVVTTKQTDEGVIVETEIDLSELPHVQKQFPHHAVVRMTYTIKENTLFKHATVMNKGKEAFPWGIGYHTTFIFPAESSLFSLTADQQWELDERLLPTGKLMDVPYKEALHEGMDLRHKQLDDVFLSSYQKRGGENQAVIYHQHAHISIIYKADEQFKHWVVYNADGKQGYLCPEPYTWVTNAVNLDLPSSLTGLQVLEPGEETTAKSSITIELNHQ”, for which the protein production result is listed as “not failed”.

With “MANIDLHFHSRTSDGALTPTEVIDRAAARAPALLALTDHDCTGGLAEAAAAAARRGIPFLNGVEVSVSWGRHTVHIVGLGIDPAEPALAAGLKSIREGRLERARQMGASLEAAGIAGCFDGAMRWCDNPEMISRTHFARHLVDSGAVKDMRTVFRKYLTPGKPGYVSHQWASLEDAVGWIVGAGGMAVIAHPGRYDMGRTLIERLILDFQAAGGQGIEVASGSHSLDDMHKFALHADRHGLYASSGSDFHAPGEGGRDVGHTEDLPPICRPIWRELEARILRP”, the protein production entry is “failed”.

For the sequence “MANIFIENSLLFALTQIVPLLYIVTTALYGIHFFKETPLAGSLKQPALILTVVTHVADLGLLTSTAGYRLSYSAYNLMSMVALTLAITYMFIEFTTKSDKTGFFVIAFAAGSALFSSILSSQTVDSGLAFSGLGIGVHLFAAIFGFSSVAIAGLYSGMYLVLFRQIRLNRFGLLFQRLPNLETLEMLIMHAVAFGFFFLSVTIVAGVLEQHASKEVINLFEPRLVSLFVIWALYGISLVIKPLFGWDIKHMAVLLIALFVLVTALLFIMSLVTPSFHGMSI”, the protein production entry is “failed”.

On to “MANISLKQGQFVTNSLPNKWKFRNLTKILLRRRFIVLGVSCMVISATSFTAITNKPTYKSQMQILVSPNVSEEVGITNNNIDIPISIEQYSVQKNLMQSSKLIDKVVNLLSFDYPNITKENILGKTENSENSPLKVTQLETNKGAKQVLSPVFEISFQDNDPLKTKKVLLALQKVYQDYNLERRQERFNQGLAFINARLPVIKQQLRQAERKLEQFRKKHNLLDPELQSQVLIKSLTKTQEQLQLTRTQLQDINSRYQNLEERITEASQKALVSMRLAQSSRYKTLTSELQKTEQSLAKEQLRYTDDSPIVQSLKQQRRSQLTLVRQELKRLTAELKTQTTPEPEQLVGVDPNLVEEFVQVQTTALGLIANEKSLRESEQRIRSELSKYPSLIAEYQRLLPEVETQRKTLEQMLQAQQSMGMKIAHGGFDWLVLEEANLGTYVGNDRFWLVFVGMITGPILGVVLALIWGMRHRIIHSAQDLQKVSNLRLLGTVPKLAPRTMEKRLPNLSWLGGRNLTESEEVGNSWLPCHETLDMVYQNTQILKYPFPFKSMMVTSALPGEGRTTLAMGLAASAAHMHRRVLLIDANLRSPKLHKILQLSNDWGLSLLLLDETNTEVQDYIQPIHPSIDILTAGPTPEDAVELLSSQRLKDLIELFEETYDLVLIDAPPILGTVDGRIVASYCHGIMMVGRIGWVTQTELTQAVEILNSLNLVGIIANDMSSYHKG”, for which the protein production result is on record as “failed”.

For “MANKQVFPTKGNLIATKKSNALAHMGYELMDRKRNILIREMMGLLDDVKLLRDEITQTYAEAYRALQLANMSLGVISAMAEAVPIDTGLHVSYRSVMGVEIPKLSYDKQEIKPTYGLERANSKLDYAYTCFQRVKEMSVVLAEVENNVYRLANAIRKSQKRANALKNIVIPEFEHNIKFITDALEEKEREEFSRQKVIKRNKDSQMQMERK”, the protein production result was “failed”.

With “MANKTIAQTGSATSPTTNKSGTYVEVPLQDTIPIIFVPGIMGSNIFNTVLGKPVWMIGNGISGQVKTLTKQMGKTPAELQTELDPLNTRVDTSGDIKVDRRLKLTEKTLRERYWGTVHWDSYGGILTYLQMVLNNVDLNEKPIYTTGLGGGYAAVQQMKQQEAVYEWKSLLNQTESSKWFPQQSFVPINQQEIEHLKKFHFPVYAMGYNWLQSSENGAALVAQKLDKIKQEYGARFHKFIIVTHSMGGLLTRRLVQLCSADIAGVV”, the protein production result is reported as “failed”.

Consider “MANNARIEHTSSEGHEGDATCVAYFDGQLFSGGADGKIRIWSPELQLLATVNAHEAYIYCMAINQHGKVYSSSCDGQVHFMLPPYGDESVQELFRCDDAIQAMYCDGSVLYTGDDKGVVTTWTNDRMLFKYSLVEEVKSLAGEQNLIYTVRDLDVVVSQVAEGKSGKYSNKAVIPGKSPLHLLGPMVDGKRSYLAFPDRSGMGLQLVNNLSQQQYSKIWHLPDCHELIINALCGDETYLYSGGYDKKVKGWTDLEAGKPKALGEVEVGSCVNSICCGANDTVYIASSDGFIRSAKFV”, for which the protein production result is listed as “failed”.

As for “MANQTVERQSWSNRLAYIMTVAGATVGFGATWRFPYLVGENGGGAYVFLFCIAMIVIGIPMILVENVIGRRMKVNAIDAFSGQANGKKIASGWKILGYMGLLGAFGILSYYMVLGGWVLNYIGSLISGNLDLSSPITVETTTAYYQNSIQNSPITILCYAALFVLINFFILTKGIVDGIERSVKYLMPILFIFLLVMVVRNVTLPGATDGISFYLMPDFSKITPKLFVFVLGQVFFALSLGFGVLITLSSYLDKNENLIKTATITGIMNTFIAVLAGFMIFPSLFSFGVAPNSGPTLVFQSLPIVFSNMWGGTIFAIIFFSLLIVAALTTSLTIYEVIITALQEKTKISRKTAIGITLSSTFLIGNIPSVLGDNIWKDVTIMGKSIFDVFDYISGNILFILTALGSAIFVGYVLKDEAKAELGANKTLTTIWFNYVRFVIPIIIIVIFFNSL”, the protein production result is recorded as “failed”.

Consider “MANSIDLIGYVHQPVQFDSTLDGKFWAGTVISHEPSSDSKSESDSSSNFWIPVLFEGDLAHTANSYLKKNDRVHITGQILGDVIQSGANSDQAHVQLFKSFHGSFSHQVMVRD”, for which the protein production entry was “failed”.

On to “MANTSSDWAGAPQNASADGEFVRDTNYIDDRIVADVPAGSEPIAQEDGTFHWPVEAGRYRLVAARACPWAHRTVITRRLLGLENVISLGLTGPTHDVRSWTFDLDPNHLDPVLQIPRLQDAYFNRFPDYPRGITVPALVEESSKKVVTNDYPSITIDFNLEWKQFHREGAPNLYPAELREEMAPVMKRIFTEVNNGVYRTGFAGSQEAHNEAYKRLWVALDWLEDRLSTRRYLMGDHITEADIRLYPTLVRFDAVYHGHFKCGRNKITEMPNLWGYLRDLFQTPGFGDTTDFTEIKQHYYITHAEINPTRIVPVGPDLSGFATPHGREKLGGSPFAEGVTLPGPIPAGEEVKNPEPFQK”, for which the protein production result is recorded as “not failed”.

On to “MANVVILGGNGYLGRNITKVWLEIDPKLEFYIVSRSGQNKLVDKRIHNIKVDVTNEKDVAKKRPDTFDYIIDCIGVPEKDPEKFKQINDLPAETMLALARKQKDPVMGFISGRLGPKTFIDGKAQILKELQDSSIKVASVSPNVVYGNGRKDSMTKMVPFLKFMDLFSAKMNPDDVVKDLINQMIKLHNS”, for which the protein production result is given as “failed”.
